Publication PMC2820103 (Biochemistry, 2009)

Biological target: the molecule itself
Test: SEC

B1: Benzylsuccinate synthase α subunit (BSS-α) with a C-terminal His6 tag (natural protein, Thauera aromatica T1, UniProt O68395 1-864, looked up)
chain: MNDIVSAKVLEYKGKKLNFTPEDPAEETIPADELHEHLQKPSTARTKRLKERCRWKHASAGEFIEKSVTAGIERMRYLTEAHKASEGKPEAIRRALGLANVLNKSTLVLQEDEFIVGYHAEDPNMFPLYPELSHMAVQDYLRSDYSPQPADEAAAINEYWKPHSLQSKCQPYFDPADLGRMYQVSSMEAPSFASGYNSIVPPYETVLEDGLLARIKLAEKHIAEAQADMSTFPWNGTKGLDNIAKIDNWKAMVIACKAVISWARRQGRLCKIVAENFETDPKRQAELLEIADICQRIPAEPCKGLKDAMQAKFFTFLICHAIERYASGYAQKEDTLLWPYYKASVVDKKFQPMSHMDAVELVEMERLKISEHGAGKSRAYREIFPGSNDLFILTVGGTNAKGEDACNDMTDAILEAAKRIRTAEPSIVFRYSKKNREKTLRWVFECIRDGLGYPSIKHDEIGTEQMKEYAKFSLNGNGATDEEAHNWVNVLCMSPGIHGRRKTQKTRSEGGGSIFPAKLLEISLNDGYDWSYADMQLGPKTGDLSSLKSFEDVWEAFRKQYQYAINLCISTKDVSRYFEQRFLQMPFVSAIDDGCMELGMDACALSEQPNGWHNPITTIVAANSLVAIKKLVFEEKKYTLEQLSQALKANWEGFEEMRVDFKRAPKWGNDDDYADGIITRFYEEIIGGEMRKITNYSGGPVMPTGQAVGLYMEVGSRTGPTPDGRFGGEAADDGGISPYMGTDKKGPTAVLRSVSKVQKNQKGNLLNQRLSVPIMRSKHGFEIWNSYMKTWHDLNIDHVQFNVVSTDEMRAAQREPEKHHDLIVRVSGYSARFVDIPTYGQNTIIARQEQDFSASDLEFLNVEI
Which “stoichiometry N” value does the source give for B1 here?
The value was 2.
